What was measured:
Assay in all cases: holdup assay
Set-up in all cases: key: below the threshold = too weak to quantify, mostly under pKd 3.1 to 4
Conditions in all cases: plain residues with an end cap or a label only (N-terminal biotin on a linker: ttds)
O00233 = biological target: O00233
O00560 = biological target: O00560
O15021 = biological target: O15021
O43166 = biological target: O43166
O60759 = biological target: O60759
O75970 = biological target: O75970
Q12923 = biological target: Q12923
Q13009 = biological target: Q13009
Q13368 = biological target: Q13368
Q5TCQ9 = biological target: Q5TCQ9
Q6ZWJ1 = biological target: Q6ZWJ1
Q70Z35 = biological target: Q70Z35
Q8IUC4 = biological target: Q8IUC4
Q8TB45 = biological target: Q8TB45
Q8TDM6 = biological target: Q8TDM6
Q8TEW0 = biological target: Q8TEW0
Q92614 = biological target: Q92614
Q96FS4 = biological target: Q96FS4
Q96HC4 = biological target: Q96HC4
Q96JB8 = biological target: Q96JB8
Q96JY6 = biological target: Q96JY6
Q96SB3 = biological target: Q96SB3
Q9C0E4 = biological target: Q9C0E4
Q9H190 = biological target: Q9H190
Q9NPB6 = biological target: Q9NPB6
Q9NR12 = biological target: Q9NR12
Q9P227 = biological target: Q9P227
Q9UDY2 = biological target: Q9UDY2
Q9ULJ8 = biological target: Q9ULJ8
Q9UMS6 = biological target: Q9UMS6
Q9Y3R0 = biological target: Q9Y3R0

Measured: pKd

B1: HPV30-E6, P36809 (peptide)
chain: RHTTSTETAV
below the threshold: all assays above

B2: ATP2B4, P23634 (peptide)
chain: SSLQSLETSV
below the threshold: all assays above

Source: paper PMC9482650, “Quantitative fragmentomics allow affinity mapping of interactomes” (Nature Communications, 2022)
